The source of these data is doi:10.1101/2020.04.29.069500.

This test concerns the target first Tudor domain of PHF20L1 (PHF20L1 Tudor1) (UniProt A8MW92). As to the kind of experiment: NMR titration.
Sequence of UniProt A8MW92 (A8MW92 5-70): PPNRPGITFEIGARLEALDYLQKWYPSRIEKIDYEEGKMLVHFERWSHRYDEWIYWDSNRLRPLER

“K142 mono-methylated (K142me1) DNMT1 peptide” gave a Kd of 670 µM.

A word on the Kd: it is the constant that tells how readily two partners part at equilibrium. Low values mean higher affinity, high ones lower affinity.
